The values that follow come from article PMC2095792 (Nucleic Acids Research, 2007).

This data set concerns the molecule itself. In words: pull-down.

B1: Pop1p (natural protein)
chain: MSGSLSRGNGGKKVLNKNQLLKRNRIRNARSIRAEAVAASSTKTGTPSDLSESGSKLNVDQFISSRQFEVKQLQLAMHNSKAASSTRIFQALPRKLRRRTASHNVRRIPKRMRNRALREMRKSDQQDVLKGSSASSRKAHGLNAKQLYKARMSIKLLRLASKSTSMKLSMPPEVTSSNCHVRQKIKTLKRMIKESSTANPNIKLLNNRMGSYDCTGVNELAPIPKGRVKYTKRQKHFAWLPTHIWNAKRSHMMKRWGYQMVWAPTQKCFKLTHRLGGDTCSSDGALCMDSSYIGTIIVKDKSNDSEGDFLKSIIGKLTAERANLRKYREGQVLFQGLIYSFNEENGEDSTKPLGPCDVFWVQKDTAIIRLHPSIYTQVFNILLQHKEKLTVQDCRYSLASVTLKGAKALESLASCLRSTEYSKSFEQFKMVSMITDHNALPQRCTFAFEAIDPRHLAAPKKLNDSQRKTVNSDDILSLHENYPQDEINAVFNELCDPESRTQSYNNQNTLKEISARRYKLLTATPNSINKTTVPFKESDDPSIPLVIIRRLKTRDWIVVLPWFWLLPLWHLLNRIPRMYHIGLRQFQQIQYENKQLYFPDDYPFTQLGYIENSFYKKEASKTKWDRKPMGKRINFEKIKDIHNTKLPAYSGEIGDFFSSDWRFLQILRNGIDYLQRNDKTLELMDSKKTGQFNAQGVRDINCVNDVLEFCKDYEAKTKAMSLSIEENIPVALCKNRKCQFRTPDSISVNSSSFSLTFFPRCIIAVSCTLLERGHPKDNARIYQVPEKDLEHWLQLAKGVYRPNGRKDHDLKIPLPEVHDLIGFITSGTYHLNCGNGMGIGFIDHHAAIRQPTRYVLIRNVGTNTYRLGEWSKISV
modifications: 32P-phosphate on the RRASV site (bovine heart kinase), in the untagged radiolabelled form only
Regarding B1, the binding result is given as “binds”.

B2: Rpp1p (natural protein)
chain: MLVDLNVPWPQNSYADKVTSQAVNNLIKTLSTLHMLGYTHIAINFTVNHSEKFPNDVKLLNPIDIKRRFGELMDRTGLKLYSRITLIIDDPSKGQSLSKISQAFDIVAALPISEKGLTLSTTNLDIDLLTFQYGSRLPTFLKHKSICSCVNRGVKLEIVYGYALRDVQARRQFVSNVRSVIRSSRSRGIVIGSGAMSPLECRNILGVTSLIKNLGLPSDRCSKAMGDLASLVLLNGRLRNKSHKQTIVTGGGSGNGDDVVNDVQGIDDVQTIKVVKRSMDAEQLGHASKRHKP
modifications: 32P-phosphate on the RRASV site (bovine heart kinase), in the untagged radiolabelled form only
B2: the binding result is “binds”.

B3: Pop3p (natural protein)
chain: MSGSLKSLDKKIAKRRQVYKPVLDNPFTNEAHMWPRVHDQPLIWQLLQSSIINKLIHIQSKENYPWELYTDFNEIVQYLSGAHGNSDPVCLFVCNKDPDVPLVLLQQIPLLCYMAPMTVKLVQLPKSAMDTFKSVSKYGMLLLRCDDRVDKKFVSQIQKNVDLLQFPWLNAIKYRPTSVKLLKTTVPIVSKKRQK
modifications: 32P-phosphate on the RRASV site (bovine heart kinase), in the untagged radiolabelled form only
For the protein B3, the binding result is “binds”.

B4: Pop4p (natural protein)
chain: MDRTQTFIKDCLFTKCLEDPEKPFNENRFQDTLLLLPTDGGLTSRLQRQQRKSKLNLDNLQKVSQLESADKQLEKRDYQRINKNSKIALREYINNCKKNTKKCLKLAYENKITDKEDLLHYIEEKHPTIYESLPQYVDFVPMYKELWINYIKELLNITKNLKTFNGSLALLKLSMADYNGALLRVTKSKNKTLIGLQGIVIWDSQKFFIMIVKGNIIDEIKCIPKKGTVFQFEIPISDDDDSALRYSILGDRFKYRSVDRAGRKFKSRRCDDMLYYIQN
modifications: 32P-phosphate on the RRASV site (bovine heart kinase), in the untagged radiolabelled form only
As for B4, the binding result is listed as “binds”.
